Laboratory results as given in article PMC8920257.

Experiments:
Test in all cases: SPR
ACE2 p.Thr27Arg (human) = ACE2 p.Thr27Arg (human) (UniProt Q9BYF1)
ACE2 p.Pro389His (human) = ACE2 p.Pro389His (human) (UniProt Q9BYF1)
ACE2 p.Asp355Asn (human) = ACE2 p.Asp355Asn (human) (UniProt Q9BYF1)
ACE2 p.Glu37Lys (human) = ACE2 p.Glu37Lys (human) (UniProt Q9BYF1)
ACE2 p.Ser19Pro (human) = ACE2 p.Ser19Pro (human) (UniProt Q9BYF1)
ACE2 p.Glu329Gly (human) = ACE2 p.Glu329Gly (human) (UniProt Q9BYF1)
ACE2 p.Glu35Lys (human) = ACE2 p.Glu35Lys (human) (UniProt Q9BYF1)
ACE2 p.Lys26Arg (human) = ACE2 p.Lys26Arg (human) (UniProt Q9BYF1)
ACE2 p.Phe40Leu (human) = ACE2 p.Phe40Leu (human) (UniProt Q9BYF1)
ACE2 p.Gly326Glu (human) = ACE2 p.Gly326Glu (human) (UniProt Q9BYF1)

“SARS-CoV-2 Spike receptor binding domain (from UniProt P0DTC2) (domain or fragment)” gave an SPR ΔΔG against ACE2 WT (ACE2 p.Thr27Arg (human)) of -0.11 kcal/mol, an SPR ΔΔG against ACE2 WT (ACE2 p.Pro389His (human)) of 0.27 kcal/mol and a ΔΔG against ACE2 WT (ACE2 p.Pro389His (human)) of 0.12 kcal/mol. It also gave an SPR ΔΔG against ACE2 WT (ACE2 p.Asp355Asn (human)) of under -3.16 kcal/mol, an SPR ΔΔG against ACE2 WT (ACE2 p.Glu37Lys (human)) of -1.33 kcal/mol and a ΔΔG against ACE2 WT (ACE2 p.Glu37Lys (human)) of -1.25 kcal/mol. It also gave an SPR ΔΔG against ACE2 WT (ACE2 p.Ser19Pro (human)) of 0.59 kcal/mol, an SPR ΔΔG against ACE2 WT (ACE2 p.Glu329Gly (human)) of -0.09 kcal/mol and a ΔΔG against ACE2 WT (ACE2 p.Glu329Gly (human)) of -0.06 kcal/mol. The SPR ΔΔG against ACE2 WT (ACE2 p.Glu35Lys (human)) was -0.36 kcal/mol, the ΔΔG against ACE2 WT (ACE2 p.Glu35Lys (human)) was -0.29 kcal/mol and the SPR ΔΔG against ACE2 WT (ACE2 p.Lys26Arg (human)) was 0.26 kcal/mol. It also gave a ΔΔG against ACE2 WT (ACE2 p.Lys26Arg (human)) of 0.31 kcal/mol, an SPR ΔΔG against ACE2 WT (ACE2 p.Phe40Leu (human)) of 0.11 kcal/mol and a ΔΔG against ACE2 WT (ACE2 p.Phe40Leu (human)) of 0.14 kcal/mol. For the same substance, the SPR ΔΔG against ACE2 WT (ACE2 p.Gly326Glu (human)) was -0.65 kcal/mol and the ΔΔG against ACE2 WT (ACE2 p.Gly326Glu (human)) was -0.67 kcal/mol.
